Test results taken from US20210070876A1 (LES LABORATOIRES SERVIER, published 2021).

How the values were obtained:
[1] = target: T1, His-tagged cynomolgus CD73 ECD (cynomolgus monkey (Macaca fascicularis)); experiment: SPR, mAb captured, His-tagged CD73 ECD injected
T1 chain: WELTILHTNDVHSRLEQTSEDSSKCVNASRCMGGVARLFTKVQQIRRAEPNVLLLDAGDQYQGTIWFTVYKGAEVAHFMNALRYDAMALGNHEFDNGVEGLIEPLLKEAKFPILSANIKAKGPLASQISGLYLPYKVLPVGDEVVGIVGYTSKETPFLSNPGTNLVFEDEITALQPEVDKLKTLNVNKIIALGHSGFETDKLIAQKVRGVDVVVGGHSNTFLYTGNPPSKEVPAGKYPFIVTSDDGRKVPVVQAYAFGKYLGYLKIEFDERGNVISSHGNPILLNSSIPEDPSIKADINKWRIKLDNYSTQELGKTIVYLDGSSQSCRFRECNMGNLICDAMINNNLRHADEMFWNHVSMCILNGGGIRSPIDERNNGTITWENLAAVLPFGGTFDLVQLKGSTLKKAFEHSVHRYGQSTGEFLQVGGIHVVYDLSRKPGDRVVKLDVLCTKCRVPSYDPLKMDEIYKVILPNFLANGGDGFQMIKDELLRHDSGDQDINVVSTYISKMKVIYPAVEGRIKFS
Method: Kinetic binding analysis of anti-CD73 mAbs and Fab fragments was performed by Surface Plasmon Resonance (SPR), using a Continuous Flow Microspotter (CFM, Wasatch Microfluidics, Salt Lake City, US) combined with an IBIS MX96 SPR instrument (IBIS Technologies, The Netherlands). CD73 cDNAs coding for the extracellular domains of human and cynomolgus CD73 were synthesized and each cloned into a vector containing a CMV promoter and either a C-terminal 6× histidine sequence (SEQ ID NO: 45) for His-tagged CD73 ECD, or a human IgG1 Fc sequence (AA P101-K330), resulting in fusion of IgG1 Fc C-terminally to the cloned CD73 ECD. The His-tagged and Fc-fusion constructs were transiently expressed using an ExpiCHO™ expression system and purified either by standard Ni-NTA chromatography or standard MabSelect™ SuRe™ procedures, respectively. Anti-CD73 Fab fragments were generated by digesting full-length IgG1 antibodies with GingisKHAN enzyme, using a kit provided by Genovis (Sweden). Affinities of Fab fragments were measured by capturing Fc-tagged antigens on a G-a-hu-IgG Fc SensEye® for 15 minutes using the CFM. After spotting, the SensEye® was positioned in the IBIS MX96 biosensor and immobilized antigens were fixed by SensEye FixIt kit. Kinetic analysis was performed by injecting monomeric Fab fragments at increasing concentrations from 0.8 nM to 300 nM. After each cycle of Fab fragment injection, the surface was regenerated by 10 mM glycine pH 3, 10% glycerol. Fab association was performed for 15 minutes and antigen dissociation was performed for 15 minutes. Affinities of full-length monoclonal antibodies (mAbs) were measured by capturing mAbs on a G-a-hu-IgG Fc SensEye® (Ssens BV, The Netherlands) for 15 minutes using a Continuous Flow Microspotter (CFM, Wasatch Microfluidics, Salt Lake City, US). After spotting, the SensEye was docked in the IBIS MX96 and spotted mAbs were fixed by SensEye FixIt kit (Ssens BV, The Netherlands). Kinetic analysis was performed by applying a kinetic titration series injecting increasing concentrations of His-tagged antigens from 0.16 nM to 10 nM as 2-fold dilutions. The surface was regenerated before the next cycle of cynomolgus antigen injections by 100 mM H₃PO₄, pH 3. MAb association was performed for 15 minutes and antigen dissociation was performed for 45 minutes.

mouse CD73 = target: T2, mouse CD73 (mouse, UniProt Q61503 29-549, limits assumed); experiment: not described (statement in the methods of Example 22)
T2 construct: Only named in a sentence on cross-reactivity
T2 sequence (looked up): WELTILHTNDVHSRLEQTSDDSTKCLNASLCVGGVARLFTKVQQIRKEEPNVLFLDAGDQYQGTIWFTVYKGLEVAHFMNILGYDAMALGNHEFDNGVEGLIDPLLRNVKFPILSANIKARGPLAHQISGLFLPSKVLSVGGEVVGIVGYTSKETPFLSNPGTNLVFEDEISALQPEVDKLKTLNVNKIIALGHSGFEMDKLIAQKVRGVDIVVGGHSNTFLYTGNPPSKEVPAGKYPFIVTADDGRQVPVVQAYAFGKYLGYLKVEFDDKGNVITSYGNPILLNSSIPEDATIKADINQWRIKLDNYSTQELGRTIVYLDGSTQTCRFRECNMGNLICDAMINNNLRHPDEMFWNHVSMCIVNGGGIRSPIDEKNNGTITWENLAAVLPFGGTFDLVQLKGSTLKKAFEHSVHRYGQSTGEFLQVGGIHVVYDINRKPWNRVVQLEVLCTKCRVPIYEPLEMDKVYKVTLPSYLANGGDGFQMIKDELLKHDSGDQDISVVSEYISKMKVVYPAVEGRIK

Kd [1]: 240 pM
binding result (mouse CD73): no binding
B1: antibody 21127 (antibody, human IgG1, kappa, L234A L235A, V domains shown)
VH: EVQLVESGGGLVQPGRSLRLSCAASGFTFDDFAMHWVRQAPGKGLEWVSGISWNSGNIGYADSVKGRFTISRDNAKNSLYLQMNSLRAEDTALYYCAKDKSGSPYYYYGMDVWGQGTMVTVSS
VL: DIQMTQSPSSVSASVGDRVTITCRATQGISRRLAWYQQKPGKAPKLLIYAASSLQSGVPSRFSGSGSGTDFTLTISSLQPEDFATYYCQQANSFPLTFGGGTKVEIKR
notes: Fully human IgG1-LALA (L234A/L235A), kappa
